Laboratory results reported in patent publication US20250368742A1 (D2M BIOTHERAPEUTICS, published 2025).

T1: MICA004-ECD-HISAvi (human)
T1 construct: also called MICA004 polypeptide
T1 chain: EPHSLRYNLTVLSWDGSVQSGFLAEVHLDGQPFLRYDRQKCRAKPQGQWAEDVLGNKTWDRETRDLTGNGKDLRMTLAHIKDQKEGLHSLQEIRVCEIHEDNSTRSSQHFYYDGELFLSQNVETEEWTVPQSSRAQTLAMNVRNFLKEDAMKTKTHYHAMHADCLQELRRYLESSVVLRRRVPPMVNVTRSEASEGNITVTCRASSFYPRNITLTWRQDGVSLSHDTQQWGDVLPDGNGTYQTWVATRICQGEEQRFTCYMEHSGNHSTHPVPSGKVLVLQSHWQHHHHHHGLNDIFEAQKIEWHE

T2: MICB005-ECD-HISAvi (human, UniProt Q29980 24-309)
T2 construct: Two sources under one name in the two kinetic assays; also called MICB005 polypeptide
T2 sequence: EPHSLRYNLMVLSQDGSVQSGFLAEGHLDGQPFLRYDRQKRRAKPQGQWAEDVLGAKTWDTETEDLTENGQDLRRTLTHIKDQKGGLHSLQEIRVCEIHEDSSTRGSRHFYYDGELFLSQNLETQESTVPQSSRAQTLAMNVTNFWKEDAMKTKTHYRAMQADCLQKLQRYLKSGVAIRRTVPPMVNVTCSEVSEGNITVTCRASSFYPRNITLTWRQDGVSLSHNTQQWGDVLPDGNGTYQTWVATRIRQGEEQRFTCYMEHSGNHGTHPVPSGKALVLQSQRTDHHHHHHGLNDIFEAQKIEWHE

T3: MICA008-ECD-HISAvi (human)
T3 construct: Two sources under one name in the two kinetic assays; also called MICA008 polypeptide
T3 chain: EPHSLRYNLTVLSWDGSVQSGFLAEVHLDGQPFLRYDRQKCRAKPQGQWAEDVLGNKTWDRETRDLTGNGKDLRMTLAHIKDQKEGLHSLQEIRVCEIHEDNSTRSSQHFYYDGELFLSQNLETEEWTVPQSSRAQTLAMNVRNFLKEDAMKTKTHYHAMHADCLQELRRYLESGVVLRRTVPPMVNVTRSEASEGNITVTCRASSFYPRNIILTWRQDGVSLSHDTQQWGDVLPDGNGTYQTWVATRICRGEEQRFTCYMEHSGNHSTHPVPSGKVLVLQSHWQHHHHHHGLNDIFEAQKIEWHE

T4: MICA002-ECD-HISAvi (human, UniProt Q29983 24-308)
T4 construct: also called MICA002 polypeptide
T4 chain: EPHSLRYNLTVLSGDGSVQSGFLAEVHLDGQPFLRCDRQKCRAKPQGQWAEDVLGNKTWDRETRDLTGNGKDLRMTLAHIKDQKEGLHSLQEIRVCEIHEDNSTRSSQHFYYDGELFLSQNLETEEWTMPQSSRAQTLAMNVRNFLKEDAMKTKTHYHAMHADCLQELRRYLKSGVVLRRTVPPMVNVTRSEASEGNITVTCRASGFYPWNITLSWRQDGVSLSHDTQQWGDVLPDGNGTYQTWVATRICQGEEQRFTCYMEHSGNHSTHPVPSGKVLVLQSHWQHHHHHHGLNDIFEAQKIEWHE

T5: human MICA002 on cells (human)
T5 chain: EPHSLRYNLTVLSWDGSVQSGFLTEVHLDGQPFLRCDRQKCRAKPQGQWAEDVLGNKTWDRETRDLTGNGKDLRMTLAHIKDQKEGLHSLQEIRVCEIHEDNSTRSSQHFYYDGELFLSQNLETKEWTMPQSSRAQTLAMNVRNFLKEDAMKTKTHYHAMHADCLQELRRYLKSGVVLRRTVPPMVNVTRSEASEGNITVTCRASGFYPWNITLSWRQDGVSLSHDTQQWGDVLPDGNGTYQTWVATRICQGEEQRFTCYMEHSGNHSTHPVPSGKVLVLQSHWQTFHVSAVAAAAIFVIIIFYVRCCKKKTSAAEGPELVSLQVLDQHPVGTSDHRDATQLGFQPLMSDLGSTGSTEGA


Assays:
human MICB005 on cells = molecular target: T6, human MICB005 on cells (human); experiment: flow cytometry, CHO-MICB005 cells
T6 construct: whole, on cells; also called CHO-MICB005; C1R-MICB005

human MICA004 on cells = molecular target: T7, human MICA004 on cells (human); experiment: flow cytometry, CHO-MICA004 cells
T7 construct: whole, on cells; also called CHO-MICA004; C1R-MICA004

MICA004-ECD-HISAvi = molecular target: T1, MICA004-ECD-HISAvi; experiment: SPR (Carterra); antibody captured by anti-human Fc, monomeric ECD antigen injected
Protocol: (§1) The dissociation kinetics were monitored for approximately 10 minutes. The chip surface was regenerated between binding cycles with 10 mM glycine HCl, pH 1.7. Binding kinetics were analyzed using software supplied by the manufacturer.

MICB005-ECD-HISAvi = molecular target: T2, MICB005-ECD-HISAvi; experiment: as above
Protocol: as §1

MICA008-ECD-HISAvi = molecular target: T3, MICA008-ECD-HISAvi; experiment: as above
Protocol: as §1

MICA002-ECD-HISAvi = molecular target: T4, MICA002-ECD-HISAvi; experiment: as above
Protocol: as §1

human MICA002 on cells [1] = molecular target: T5, human MICA002 on cells; experiment: flow cytometry, CHO-MICA002 cells
human MICA002 on cells [2] = molecular target: T5, human MICA002 on cells; experiment: flow cytometry, CHO-MICA002 cells

EC50 (human MICB005 on cells)	EC50 (human MICA004 on cells)	Kd (MICA004-ECD-HISAvi)	Kd (MICB005-ECD-HISAvi)	Kd (MICA008-ECD-HISAvi)	Kd (MICA002-ECD-HISAvi)	EC50 (human MICA002 on cells [1])	EC50 (read off the curve) (human MICA002 on cells [2])	Binder
2.77 µg/mL	7.12 µg/mL	156 nM	158 nM	255 nM	61.4 nM	1.26 µg/mL	–	D2M001-001 (antibody, V domains shown, only the CDRs are tied to the name in the text; copies: 2 + 2) VH: QVQLVQSGAEVKKPGSSVKVSCKASGYTFSHHSISWVRQAPGQGLEWIGGIYPGKIKTNYAQKFQGRATLTADKSTSTAYMELSSLRSEDTAVYYCATLYGNYEAYWGQGTLVTVSS VL: DIQMTQSPSSLSASVGDRVTITCRASENIYGALNWYQQKPGKSPKLLIYGTTSLQSGVPSRFSGSGSGRDYTLTISSLQPEDFATYYCQNVLTTPPWTFGGGTKVEIK
–	–	–	–	–	–	–	~0.6 µg/mL	h36B3GA (antibody, V domains shown, humanized #36 variant; the text writes h36B3(GA); copies: 2 + 2) VH: QVQLVQSGAEVKKPGASVKVSCKASGYAFTKYNFYWVRQAPGQGLEWIGYIDPYFGGTVYNQKFKGKATLTVDKSTSTAYMELRSLRSDDTAVYYCATTDAYSLFTYWGQGTLVTVSS VL: DIQMTQSPSSLSASVGDRVTITCRASQDISNYLNWYQQTPGKAVKLLIYYTSRLHSGVPSRFSGSGSGTDYTLTISSLQPEDIATYFCLQGNTLPFTFGQGTKLEIK
